The values that follow come from US20260035452A1 (THE UNIVERSITY OF BIRMINGHAM, priority 2022, published 2026).

The test system of experiment [1] is NIH-3T3 mouse embryonic fibroblast cells. Description: IL-6 secretion by NIH-3T3 fibroblasts (Elisa). It is filed as cell-based. Particulars: NIH-3T3 cells, 50 ng/ml, vs control / IL-17 group. As to the method: FIG. 2: NIH-3T3 mouse embryonic fibroblast cells were treated with IL-17 vehicle (Ctrl), IL-17 (50 ng/ml) alone (IL-17) or peptide (FM-0410) (50 ng/ml) and supernatants were assayed by Elisa for IL-6. Data were expressed as pg/ml and presented as means±S.D. of three separate independent experiments. Statistical analysis was conducted by one-way ANOVA followed by Bonferroni's for multiple comparisons. ^##P≤0.01, ^###P≤0.005 vs Ctrl group; *P≤0.05 vs IL-17 group. In order to assess the biological activity of synthesized peptide, we carried out in vitro studies using NIH-3T3 mouse embryonic fibroblast cells. […] With this in vitro system we measured IL-17 activity by its ability to induce IL-6 secretion by NIH-3T3 mouse embryonic fibroblast cells. Methods: The levels of IL-6 in the cellular and air pouch inflammatory supernatants at 24 h were measured using commercially available enzyme-linked immunosorbent assay kit (ELISA kit, R&D System, Milan, Italy) according to the manufacturer instructions. […] The addition of 100 μl of the substrate and stop solution represented the last steps before the reading of absorbance (measured at 450 nm) on a microplate reader. Antigen levels in the samples were determined using a standard curve and expressed as pg/ml. […]

Experiment [2] has as its system hPBMC on cytokine-stimulated HDBEC monolayers. Description: Human PBMC static adhesion / transendothelial migration assay. It is filed as cell-based. Particulars: co-treatment plus TNF-α. As for the experimental part: FIG. 10: Human dermal blood endothelial cells (HDBEC) were treated with: IL-17 vehicle (Ctrl), IL-17 or FM-0410 (100 ng/ml), alone or in combination with TNF-α (100 U/ml) for 24 h. Cells were washed, gated in their totality and singlet before the identification of IL-17Rs (RA and RC) (A, B), ICAM (C) and VCAM (D) expression. Histogram values (expressed as MIF) indicate the total positive cells (A-D). In (E) are shown phase-contrast micrographs of confluent monolayers of untreated or treated (as reported before) HDBEC. Total adhesion (expressed as INT/mm^2, F) and % of transmigration (G) are calculated with Image Pro programme (DataCell, Finchampstead). Inflammatory supernatants from all experimental conditions were assayed by Elisa for IL-6 (H) expressed in pg/ml. Data were presented as means±S.D. of n=3 healthy donors. […]
Human PBMC transendothelial migration assay: Prior to beginning the assay, HDBEC monolayers were washed with 37° C. medium 199 (Thermo Fisher Scientific) supplemented with 0.15% w/v BSA (MilliporeSigma) to remove any residual cytokines. hPBMC (1×10^6) were co-cultured with cytokine-stimulated HDBEC monolayers at 37° C. for 20 min. […] Total hPBMC adhesion and mean percentage transmigration were calculated for each well.

Experiment [3] relates to dorsal air pouch of mice. Particulars: single administration 1 μg/pouch into 6-day old air pouch; previous studies; cited from earlier work.
The test system of experiment [4] is neutrophils. Description: Transwell chemotaxis assay. Format: cell-based, human. As to the method:
The cells migration after IL-17 (10-500 ng/ml), FM-0410 (10-500 ng/ml) or N-Formylmethionine-leucyl-phenylalanine (fmlp; 10^−6 M) treatment was quantified using CountBright™ Absolute Counting Beads. Data were presented as means±S.D. of n=3 healthy donors. Statistical analysis was conducted by one-way ANOVA followed by Bonferroni's for multiple comparisons. ^#P≤0.05, ^##P≤0.01, ^###P≤0.001, ^####P≤0.0001 vs Ctrl group; ^+P≤0.05 vs IL-17. Neutrophil isolation: Blood was taken according to local research ethics committee approval (QMERC2014/61). Informed consent was provided according to the Declaration of Helsinki. All blood samples were collected on the day of experiments from healthy donors and immediately used. Each condition has 3 biological replicates (3 different donors). Neutrophils were isolated using a double density histopaque gradient and hypotonic lysis as described previously. Transwell chemotaxis assay: Chemotaxis was assessed using a transwell assay. […] After 2 hours at 37° C., neutrophils were collected from the bottom wells and quantified by flow cytometry using CountBright™ Absolute Counting Beads (Thermofisher, Rugby, UK) as previously described.

The target in experiment [5] is IL-17RA (Homo sapiens, UniProt Q96F46). Particulars: cited from earlier work.

B1: IL-17: recombinant mouse IL-17 purchased from R&D System; full-length cytokine used as comparator and stimulus (protein, UniProt Q62386 26-158, looked up)
Interleukin-17A: AAIIPQSSACPNTEAKDFLQNVKVNLKVFNSLGAKVSSRRPSDYLNRSTSPWTLHRNEDPDRYPSVIWEAQCRHQRCVNAEGKLDHHMNSVLIQQEILVLKREPESCPFTFRVEKMLVGVGCTCVASIVRQAA
B1: the IL-6 release entry in experiment [1] was “significant increase in IL-6 release compared to control group”. In addition, in experiment [2], the “total number of adhered hPBMC” value is “significant increase” and the “transmigrated hPBMC” value was “significant increase”. Also, the “time of peak of leukocyte infiltration” value in experiment [3] is recorded as 24 h. For the same molecule, the “chemotactic activity compared to positive control fmlp (10^−6 M)” value in experiment [4] (500 ng/ml) was “almost similar to positive control fmlp”. In addition, the “chemotactic effect on neutrophils” value in experiment [4] (10-500 ng/ml, vs Control group) is “concentration-dependent chemotactic effect”. Further, the “affinity of IL-17RA for IL-17A compared to IL-17F” value in experiment [5] is recorded as roughly 100 fold.
